B1: EEHEE_rd3_0130 (parent)
chain: TKIIVNGKTFTAPTEEEAQKIAEKLAKKAGLTVHKKNGTFELK

The variants in this data set derive from B1. The experiment in a line: folding stability dG (cDNA display proteolysis); higher = more stable. To be noted: PBS, room temperature.
For the variant TKIIVNIKTFTAPTEEEAQKIAEKLAKKAGLTVHKKNGTFELK [G7I], the “folding stability dG” value is -0.841 kJ/mol. The result for TKIIVNAKTFTAPTEEEAQKIAEKLAKKAGLTVHKKNGTFELK [G7A] reads 0.0293 kJ/mol. In the case of TKIIVNRKTFTAPTEEEAQKIAEKLAKKAGLTVHKKNGTFELK [G7R], the “folding stability dG” value is 0.0879 kJ/mol. With TKIIVNSKTFTAPTEEEAQKIAEKLAKKAGLTVHKKNGTFELK [G7S], the “folding stability dG” value was -0.105 kJ/mol. The result for TKIIVNLKTFTAPTEEEAQKIAEKLAKKAGLTVHKKNGTFELK [G7L] reads -0.778 kJ/mol; that for TKIIVNWKTFTAPTEEEAQKIAEKLAKKAGLTVHKKNGTFELK [G7W], 0.782 kJ/mol; that for TKIIVNNKTFTAPTEEEAQKIAEKLAKKAGLTVHKKNGTFELK [G7N], 0.87 kJ/mol. The result for TKIIVNEKTFTAPTEEEAQKIAEKLAKKAGLTVHKKNGTFELK [G7E] reads -3.02 kJ/mol; that for TKIIVNFKTFTAPTEEEAQKIAEKLAKKAGLTVHKKNGTFELK [G7F], 1.11 kJ/mol; that for TKIIVNPKTFTAPTEEEAQKIAEKLAKKAGLTVHKKNGTFELK [G7P], -3.13 kJ/mol.

In the case of TKIIVNTKTFTAPTEEEAQKIAEKLAKKAGLTVHKKNGTFELK [G7T], the “folding stability dG” value is -0.134 kJ/mol. TKIIVNDKTFTAPTEEEAQKIAEKLAKKAGLTVHKKNGTFELK [G7D]: the “folding stability dG” value was -1.36 kJ/mol.

Consider TKIIVNQKTFTAPTEEEAQKIAEKLAKKAGLTVHKKNGTFELK [G7Q], for which the “folding stability dG” value worked out at 0.105 kJ/mol.

In the case of TKIIVNVKTFTAPTEEEAQKIAEKLAKKAGLTVHKKNGTFELK [G7V], the “folding stability dG” value was -2.48 kJ/mol. The result for TKIIVNYKTFTAPTEEEAQKIAEKLAKKAGLTVHKKNGTFELK [G7Y] reads 0.665 kJ/mol; that for TKIIVNMKTFTAPTEEEAQKIAEKLAKKAGLTVHKKNGTFELK [G7M], -0.297 kJ/mol; that for TKIIVNHKTFTAPTEEEAQKIAEKLAKKAGLTVHKKNGTFELK [G7H], 0.444 kJ/mol.

Consider TKIIVNCKTFTAPTEEEAQKIAEKLAKKAGLTVHKKNGTFELK [G7C], for which the “folding stability dG” value worked out at 4.02 kJ/mol. The value for TKIIVNKKTFTAPTEEEAQKIAEKLAKKAGLTVHKKNGTFELK [G7K] was 0.121 kJ/mol; that for TKIIPNGKTFTAPTEEEAQKIAEKLAKKAGLTVHKKNGTFELK [V5P] was -2.29 kJ/mol; that for TKIIYNGKTFTAPTEEEAQKIAEKLAKKAGLTVHKKNGTFELK [V5Y] was 5.85 kJ/mol. The value for TKIISNGKTFTAPTEEEAQKIAEKLAKKAGLTVHKKNGTFELK [V5S] was -1.35 kJ/mol. As to TKIIANGKTFTAPTEEEAQKIAEKLAKKAGLTVHKKNGTFELK [V5A], the “folding stability dG” value is 0.715 kJ/mol.

On to TKIIWNGKTFTAPTEEEAQKIAEKLAKKAGLTVHKKNGTFELK [V5W], for which the “folding stability dG” value is 6.19 kJ/mol. TKIIDNGKTFTAPTEEEAQKIAEKLAKKAGLTVHKKNGTFELK [V5D]: the “folding stability dG” value is -3.67 kJ/mol. Take TKIIRNGKTFTAPTEEEAQKIAEKLAKKAGLTVHKKNGTFELK [V5R]: the “folding stability dG” value was -2.05 kJ/mol. Consider TKIILNGKTFTAPTEEEAQKIAEKLAKKAGLTVHKKNGTFELK [V5L], for which the “folding stability dG” value came to 3.05 kJ/mol. The value for TKIICNGKTFTAPTEEEAQKIAEKLAKKAGLTVHKKNGTFELK [V5C] was 6.82 kJ/mol; that for TKIIKNGKTFTAPTEEEAQKIAEKLAKKAGLTVHKKNGTFELK [V5K] was -1.51 kJ/mol; that for TKIIMNGKTFTAPTEEEAQKIAEKLAKKAGLTVHKKNGTFELK [V5M] was 3.46 kJ/mol. The result for TKIINNGKTFTAPTEEEAQKIAEKLAKKAGLTVHKKNGTFELK [V5N] reads -2.08 kJ/mol; that for TKIIQNGKTFTAPTEEEAQKIAEKLAKKAGLTVHKKNGTFELK [V5Q], -1.93 kJ/mol; that for TKIIENGKTFTAPTEEEAQKIAEKLAKKAGLTVHKKNGTFELK [V5E], -2.65 kJ/mol. The result for TKIIHNGKTFTAPTEEEAQKIAEKLAKKAGLTVHKKNGTFELK [V5H] reads 1.66 kJ/mol; that for TKIIFNGKTFTAPTEEEAQKIAEKLAKKAGLTVHKKNGTFELK [V5F], 5.5 kJ/mol; that for TKIIINGKTFTAPTEEEAQKIAEKLAKKAGLTVHKKNGTFELK [V5I], 4.74 kJ/mol. On to TKIIGNGKTFTAPTEEEAQKIAEKLAKKAGLTVHKKNGTFELK [V5G], for which the “folding stability dG” value is -3.14 kJ/mol.

TKIITNGKTFTAPTEEEAQKIAEKLAKKAGLTVHKKNGTFELK [V5T]: the “folding stability dG” value was -0.824 kJ/mol. The result for TKIIVNGGTFTAPTEEEAQKIAEKLAKKAGLTVHKKNGTFELK [K8G] reads -0.971 kJ/mol.

As to TKIIVNGMTFTAPTEEEAQKIAEKLAKKAGLTVHKKNGTFELK [K8M], the “folding stability dG” value came out at 3.87 kJ/mol. The result for TKIIVNGFTFTAPTEEEAQKIAEKLAKKAGLTVHKKNGTFELK [K8F] reads 5.22 kJ/mol; that for TKIIVNGWTFTAPTEEEAQKIAEKLAKKAGLTVHKKNGTFELK [K8W], 6.41 kJ/mol; that for TKIIVNGATFTAPTEEEAQKIAEKLAKKAGLTVHKKNGTFELK [K8A], 2.14 kJ/mol. The result for TKIIVNGQTFTAPTEEEAQKIAEKLAKKAGLTVHKKNGTFELK [K8Q] reads 2.8 kJ/mol. The result for TKIIVNGETFTAPTEEEAQKIAEKLAKKAGLTVHKKNGTFELK [K8E] reads 0.222 kJ/mol; that for TKIIVNGITFTAPTEEEAQKIAEKLAKKAGLTVHKKNGTFELK [K8I], 4.03 kJ/mol. As to TKIIVNGVTFTAPTEEEAQKIAEKLAKKAGLTVHKKNGTFELK [K8V], the “folding stability dG” value came to 3.61 kJ/mol. The value for TKIIVNGHTFTAPTEEEAQKIAEKLAKKAGLTVHKKNGTFELK [K8H] was 3.97 kJ/mol. The value for TKIIVNGTTFTAPTEEEAQKIAEKLAKKAGLTVHKKNGTFELK [K8T] was 1.99 kJ/mol; that for TKIIVNGLTFTAPTEEEAQKIAEKLAKKAGLTVHKKNGTFELK [K8L] was 3.74 kJ/mol; that for TKIIVNGDTFTAPTEEEAQKIAEKLAKKAGLTVHKKNGTFELK [K8D] was -1.64 kJ/mol. The result for TKIIVNGYTFTAPTEEEAQKIAEKLAKKAGLTVHKKNGTFELK [K8Y] reads 5.57 kJ/mol; that for TKIIVNGNTFTAPTEEEAQKIAEKLAKKAGLTVHKKNGTFELK [K8N], 0.996 kJ/mol; that for TKIIVNGSTFTAPTEEEAQKIAEKLAKKAGLTVHKKNGTFELK [K8S], 0.933 kJ/mol. Consider TKIIVNGRTFTAPTEEEAQKIAEKLAKKAGLTVHKKNGTFELK [K8R], for which the “folding stability dG” value was 4.18 kJ/mol. With TKIIVNGKYFTAPTEEEAQKIAEKLAKKAGLTVHKKNGTFELK [T9Y], the “folding stability dG” value was found to be 2.65 kJ/mol. The value for TKIIVNGKVFTAPTEEEAQKIAEKLAKKAGLTVHKKNGTFELK [T9V] was 4.68 kJ/mol.

Turning to TKIIVNGKEFTAPTEEEAQKIAEKLAKKAGLTVHKKNGTFELK [T9E], the “folding stability dG” value turned out to be 0.711 kJ/mol. The value for TKIIVNGKIFTAPTEEEAQKIAEKLAKKAGLTVHKKNGTFELK [T9I] was 4.22 kJ/mol.
